Drawing on paper PMC7598476, this text covers Kd and stoichiometry N for two substances.

For assay [1], the target named is biotinylated monomeric hMPV B2 F protein (human metapneumovirus (subgroup B2)). The assay can be described thus: BLI. On the technique in general: Biolayer interferometry detects binding as a change in optical thickness at a sensor tip.
The target of assay [2] is trypsinized trimeric hMPV B2 F (human metapneumovirus (subgroup B2)). Description: SEC.

As usually defined, the Kd is a measure of binding affinity in units of concentration. The substance 101F Fab yielded a Kd in assay [1] of 430 nM.

Usually stoichiometry N stands for a count of units in the complex or per binding partner. As to “trypsinized trimeric hMPV B2 F (natural protein)”, in assay [2], the stoichiometry N stood at 3.
